We go through 3 molecules from patent US20250388702A1 (Dana-Farber, published 2025).

Bounds are passed on as bounds.

Test [1] addresses T1, Human KIR3DL3 (human, UniProt Q8N743 26-410). Description: cell-based or functional assay.
The target of test [2] is T2, KIR3DL1 (UniProt P43629 22-444, limits assumed).
T2 construct: whole, on cells
Description: HEK293 cell microarray. Here is the method:
(§1) Replicate microarray slides expressing a complete KIR family cDNA panel were fixed and blocked with buffer containing PBS/0.5% BSA and incubated for 1 hour at room temperature with individual KIR3DL3 mAb hybridoma supernatants at 1:5, 1:25 and 1:250 dilutions in PBS/0.1% BSA. Cell arrays were washed with PBS and incubated for 1 hour at room temperature in PBS/0.1% BSA containing AF647-conjugated goat anti-mouse IgG (H+L) (Life Technologies, A21235). Slides were washed with PBS, dried, and imaged for ZsGreen1 and AF647 fluorescence.
(§2) In Table 4, replicate microarray slides expressing the KIR family cDNA panel (as in FIG. 1A, FIG. 2B, and FIG. 2C) were fixed and blocked with buffer containing PBS/0.5% BSA and incubated for 1 hour at room temperature with individual KIR3DL3 mAb hybridoma supernatants at 1:5, 1:25 and 1:250 dilutions in PBS/0.1% BSA. Cell arrays were washed with PBS and incubated for 1 hour at room temperature in PBS/0.1% BSA containing AF647-conjugated goat anti-mouse IgG (H+L) (Life Technologies, A21235). Slides were washed with PBS, dried, and imaged for ZsGreen1 and AF647 fluorescence.

In test [3] the target is T3, KIR3DL2 (UniProt P43630 22-455, limits assumed).
T3 construct: whole, on cells
T3 sequence (P43630 22-455 limits assumed): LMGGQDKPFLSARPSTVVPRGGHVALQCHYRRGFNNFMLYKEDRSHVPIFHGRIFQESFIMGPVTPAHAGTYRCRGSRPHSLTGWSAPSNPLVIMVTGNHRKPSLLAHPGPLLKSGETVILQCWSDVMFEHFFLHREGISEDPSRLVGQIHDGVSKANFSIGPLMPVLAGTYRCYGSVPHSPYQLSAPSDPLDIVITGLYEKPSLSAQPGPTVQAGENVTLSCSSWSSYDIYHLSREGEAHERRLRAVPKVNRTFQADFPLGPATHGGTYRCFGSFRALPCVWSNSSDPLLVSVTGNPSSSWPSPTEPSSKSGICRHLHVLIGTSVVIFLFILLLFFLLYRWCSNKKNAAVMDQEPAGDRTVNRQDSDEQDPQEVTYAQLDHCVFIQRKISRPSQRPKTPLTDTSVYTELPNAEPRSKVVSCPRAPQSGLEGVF
Nature of the test: HEK293 cell microarray. Here is the method:
as §1, §2

Test [4] concerns the target T4, KIR2DL1 (UniProt P43626 22-348, limits assumed).
T4 construct: whole, on cells
Description: HEK293 cell microarray. Here is the method: as §1, §2

In test [5] the target is T5, KIR2DL2 (UniProt P43627 22-348, limits assumed).
T5 construct: whole, on cells
T5 sequence (P43627 22-348 limits assumed): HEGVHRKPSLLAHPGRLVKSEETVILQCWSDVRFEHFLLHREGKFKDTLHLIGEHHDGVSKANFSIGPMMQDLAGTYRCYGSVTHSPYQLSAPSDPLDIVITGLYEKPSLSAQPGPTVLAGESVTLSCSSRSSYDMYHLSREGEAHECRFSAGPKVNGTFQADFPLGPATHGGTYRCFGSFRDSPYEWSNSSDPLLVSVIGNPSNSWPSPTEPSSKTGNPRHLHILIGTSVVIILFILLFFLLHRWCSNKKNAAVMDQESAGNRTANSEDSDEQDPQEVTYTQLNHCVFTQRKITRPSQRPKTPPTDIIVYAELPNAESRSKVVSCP
Description: HEK293 cell microarray. The procedure: as §1, §2

For a further test, the target named is T6, KIR2DL3 (UniProt P43628 22-341, limits assumed).
T6 construct: whole, on cells
T6 sequence (P43628 22-341 limits assumed): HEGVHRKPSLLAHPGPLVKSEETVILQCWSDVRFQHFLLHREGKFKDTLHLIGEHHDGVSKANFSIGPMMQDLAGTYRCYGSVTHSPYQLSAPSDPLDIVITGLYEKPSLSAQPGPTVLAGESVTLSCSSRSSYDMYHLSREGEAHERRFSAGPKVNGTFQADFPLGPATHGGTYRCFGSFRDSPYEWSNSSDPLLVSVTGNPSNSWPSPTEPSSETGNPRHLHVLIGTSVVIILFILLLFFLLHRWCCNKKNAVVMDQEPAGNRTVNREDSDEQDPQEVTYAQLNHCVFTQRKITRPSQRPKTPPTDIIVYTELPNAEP
Nature of the test: HEK293 cell microarray. Here is the method: as §1, §2

Test [6] addresses T7, KIR2DL4 (UniProt Q99706 22-377, limits assumed).
T7 construct: whole, on cells
Description: HEK293 cell microarray. Here is the method: as §1, §2

In test [7] the target is T8, KIR2DL5A (UniProt Q8N109 22-375, limits assumed).
T8 construct: whole, on cells
T8 sequence (Q8N109 22-375 limits assumed): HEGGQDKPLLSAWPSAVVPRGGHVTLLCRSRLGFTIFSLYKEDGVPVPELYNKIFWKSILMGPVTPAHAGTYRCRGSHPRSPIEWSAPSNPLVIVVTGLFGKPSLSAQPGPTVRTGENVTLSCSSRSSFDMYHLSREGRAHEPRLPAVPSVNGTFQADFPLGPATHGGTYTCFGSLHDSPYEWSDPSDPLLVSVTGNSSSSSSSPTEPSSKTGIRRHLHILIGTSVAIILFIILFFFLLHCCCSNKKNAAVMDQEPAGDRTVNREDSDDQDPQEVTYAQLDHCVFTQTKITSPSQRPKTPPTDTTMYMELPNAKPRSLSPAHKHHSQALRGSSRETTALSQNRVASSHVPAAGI
Nature of the test: HEK293 cell microarray. The procedure: as §1, §2

The target in test [8] is T9, KIR2DL5B (UniProt Q8NHK3 22-375, limits assumed).
T9 construct: whole, on cells
T9 sequence (Q8NHK3 22-375 limits assumed): as the sequence (Q8N109 22-375 limits assumed) above, with N152D, G174S counted along it
Nature of the test: HEK293 cell microarray. Here is the method:
as §1, §2

For a further test, the target named is T10, KIR2DS1 (UniProt Q14954 22-304, limits assumed).
T10 construct: whole, on cells
T10 sequence (Q14954 22-304 limits assumed): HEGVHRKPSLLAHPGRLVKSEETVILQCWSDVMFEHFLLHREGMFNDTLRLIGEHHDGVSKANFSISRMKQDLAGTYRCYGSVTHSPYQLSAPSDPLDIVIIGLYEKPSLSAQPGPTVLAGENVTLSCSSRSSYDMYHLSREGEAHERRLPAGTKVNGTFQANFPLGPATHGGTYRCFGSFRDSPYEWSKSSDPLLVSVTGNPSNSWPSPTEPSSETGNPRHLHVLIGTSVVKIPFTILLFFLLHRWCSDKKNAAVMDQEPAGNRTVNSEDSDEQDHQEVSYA
Nature of the test: HEK293 cell microarray. The procedure: as §1, §2

In another test the target is T11, KIR2DS2 (UniProt P43631 22-304, limits assumed).
T11 construct: whole, on cells
T11 sequence (P43631 22-304 limits assumed): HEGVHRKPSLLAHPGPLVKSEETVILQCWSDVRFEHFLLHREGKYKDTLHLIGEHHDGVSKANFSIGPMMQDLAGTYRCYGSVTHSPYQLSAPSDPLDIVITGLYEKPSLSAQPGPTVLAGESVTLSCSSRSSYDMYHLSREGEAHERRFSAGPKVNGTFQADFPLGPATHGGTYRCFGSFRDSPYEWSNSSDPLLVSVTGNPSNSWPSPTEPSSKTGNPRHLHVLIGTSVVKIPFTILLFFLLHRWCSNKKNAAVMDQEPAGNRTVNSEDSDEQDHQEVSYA
Description: HEK293 cell microarray. The procedure: as §1, §2

The target of another test is T12, KIR2DS3 (UniProt Q14952 22-304, limits assumed).
T12 construct: whole, on cells
T12 sequence (Q14952 22-304 limits assumed): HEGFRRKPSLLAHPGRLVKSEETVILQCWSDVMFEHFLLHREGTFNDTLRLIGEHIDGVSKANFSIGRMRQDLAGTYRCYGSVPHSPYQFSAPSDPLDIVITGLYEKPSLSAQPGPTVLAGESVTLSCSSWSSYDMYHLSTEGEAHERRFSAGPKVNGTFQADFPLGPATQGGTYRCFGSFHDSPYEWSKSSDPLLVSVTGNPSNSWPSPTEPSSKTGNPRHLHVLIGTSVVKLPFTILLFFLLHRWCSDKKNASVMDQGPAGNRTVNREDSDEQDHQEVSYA
Description: HEK293 cell microarray. Here is the method: as §1, §2

A further test addresses T13, KIR2DS5 (UniProt Q14953 22-304, limits assumed).
T13 construct: whole, on cells
Nature of the test: HEK293 cell microarray. The procedure: as §1, §2

Another test deals with T14, KIR3DS1 (UniProt Q14943 22-382, limits assumed).
T14 construct: whole, on cells
T14 sequence (Q14943 22-382 limits assumed): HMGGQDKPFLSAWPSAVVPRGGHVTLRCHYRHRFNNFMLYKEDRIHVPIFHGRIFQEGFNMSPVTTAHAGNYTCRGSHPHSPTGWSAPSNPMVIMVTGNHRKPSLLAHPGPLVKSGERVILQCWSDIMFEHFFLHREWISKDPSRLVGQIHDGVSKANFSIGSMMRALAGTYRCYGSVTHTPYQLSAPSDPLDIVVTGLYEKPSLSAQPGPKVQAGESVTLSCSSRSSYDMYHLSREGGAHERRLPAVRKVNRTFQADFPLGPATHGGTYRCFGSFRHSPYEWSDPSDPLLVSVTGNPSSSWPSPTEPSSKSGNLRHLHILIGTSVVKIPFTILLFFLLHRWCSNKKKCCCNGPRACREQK
Description: HEK293 cell microarray. Here is the method:
as §1, §2

Test [9] concerns the target T1, Human KIR3DL3. Description: flow cytometry, KIR3DL3-transfected 300.19 cells. For orientation: In flow cytometry, cells or beads pass a laser one at a time.
Test [10] concerns the target T1, Human KIR3DL3. Nature of the test: flow cytometry, KIR3DL3-transfected 300.19 cells. The source holds these as a separate data set.
Test [11] addresses T1, Human KIR3DL3. Nature of the test: flow cytometry; blockade of HHLA2-mIgG2a binding to KIR3DL3-transfected cells. The procedure:
(§3) The indicated concentrations of KIR3DL3 mAbs were pre-incubated with KIR3DL3 transfected 300.19 cells for 30 minutes at 4° C. […] EC50 and IC50 analysis were conducted using GraphPad Prism®.

Test [12] deals with T1, Human KIR3DL3. Description: flow cytometry; blockade of HHLA2-mIgG2a binding to KIR3DL3-transfected 300.19 cells. Here is the method: as §3
Test [13] has as its target T2, KIR3DL1. Nature of the test: cell microarray on transfected HEK293 cells, HHLA2-mIgG2a probe, AF647 anti-mouse IgG detection. The procedure: (§4) A library of ˜5500 full length cDNA clones covering more than 3,500 different plasma membrane proteins was arrayed in duplicate across 13 microarray slides (“slide sets”). Human HEK293 cells were grown above the cDNA clones and reverse-transfected. An expression vector (pIRES-hEGFR-IRES-ZsGreen1) was spotted in quadruplicate on every slide and was used to ensure that a minimal threshold of transfection efficiency had been achieved or exceeded on every slide.
(§5) Two replicate slides were screened for each of the 13 slide sets. Fluorescent images were analyzed and quantitated (for transfection efficiency) using ImageQuant software (GE). A protein ‘hit’ was defined as duplicate spots showing a raised signal compared to background levels. This was achieved by visual inspection using the images gridded on the ImageQuant software.

Test [14] addresses T3, KIR3DL2. The description is as above. Here is the method: as §4, §5
The target of test [15] is T4, KIR2DL1. The description is as above. The procedure:
as §4, §5

Test [16] deals with T5, KIR2DL2. The test is described as above. Here is the method:
as §4, §5

The target of test [17] is T7, KIR2DL4. The test is described as above. Here is the method:
as §4, §5

The target in test [18] is T8, KIR2DL5A. The test is described as above. The procedure:
as §4, §5

Test [19] has as its target T9, KIR2DL5B. The description is as above. Here is the method:
as §4, §5

For another test, the target named is T15, Human HHLA2 (human, UniProt Q9UM44 23-414).
T15 construct: also called B7-H7; B7-H5
T15 sequence: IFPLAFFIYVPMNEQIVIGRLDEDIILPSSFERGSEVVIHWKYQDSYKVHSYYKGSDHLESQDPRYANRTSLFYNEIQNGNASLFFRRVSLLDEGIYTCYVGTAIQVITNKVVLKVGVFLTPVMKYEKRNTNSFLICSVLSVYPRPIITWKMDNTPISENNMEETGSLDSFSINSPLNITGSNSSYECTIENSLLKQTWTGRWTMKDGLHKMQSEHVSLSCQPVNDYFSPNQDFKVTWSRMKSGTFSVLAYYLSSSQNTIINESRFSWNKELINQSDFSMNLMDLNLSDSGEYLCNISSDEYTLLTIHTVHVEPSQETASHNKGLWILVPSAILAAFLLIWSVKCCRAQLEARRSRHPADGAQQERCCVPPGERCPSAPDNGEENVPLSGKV
The test is described as above. Here is the method:
as §4, §5

Another test addresses T16, EGFR (human, UniProt P00533 25-1210).
T16 construct: whole, on cells; also called hEGFR
Described as above. Here is the method: as §4, §5

The target of test [20] is T1, Human KIR3DL3. Description: flow cytometry; blockade of HHLA2-mIgG2a binding to KIR3DL3-transfected 300.19 cells; Table 3; blockade of HHLA2-mouse IgG2a binding to KIR3DL3 transfected 300.19 cells, 4° C. The procedure:
as §3

T1 sequence (Q8N743 26-410 H321N limits assumed): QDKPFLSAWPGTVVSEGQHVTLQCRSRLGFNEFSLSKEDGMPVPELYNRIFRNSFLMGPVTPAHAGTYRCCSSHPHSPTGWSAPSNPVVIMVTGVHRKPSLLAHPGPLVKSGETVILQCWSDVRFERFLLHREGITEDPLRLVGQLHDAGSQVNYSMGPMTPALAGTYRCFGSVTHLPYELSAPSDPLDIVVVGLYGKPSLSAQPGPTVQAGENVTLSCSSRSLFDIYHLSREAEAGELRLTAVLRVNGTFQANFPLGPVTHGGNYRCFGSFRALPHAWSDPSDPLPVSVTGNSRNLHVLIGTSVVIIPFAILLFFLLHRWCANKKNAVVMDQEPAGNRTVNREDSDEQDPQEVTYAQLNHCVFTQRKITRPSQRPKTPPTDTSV
T4 sequence (P43626 22-348 limits assumed): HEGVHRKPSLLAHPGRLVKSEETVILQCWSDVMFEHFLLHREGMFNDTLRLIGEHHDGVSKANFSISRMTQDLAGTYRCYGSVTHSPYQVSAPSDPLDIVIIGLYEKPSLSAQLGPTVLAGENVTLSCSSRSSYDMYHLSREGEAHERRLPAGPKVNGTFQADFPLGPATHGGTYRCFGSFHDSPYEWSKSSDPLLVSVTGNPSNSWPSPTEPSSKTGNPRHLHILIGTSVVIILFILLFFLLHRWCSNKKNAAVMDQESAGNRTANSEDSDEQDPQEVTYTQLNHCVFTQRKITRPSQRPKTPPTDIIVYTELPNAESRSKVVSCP
T7 sequence (Q99706 22-377 limits assumed): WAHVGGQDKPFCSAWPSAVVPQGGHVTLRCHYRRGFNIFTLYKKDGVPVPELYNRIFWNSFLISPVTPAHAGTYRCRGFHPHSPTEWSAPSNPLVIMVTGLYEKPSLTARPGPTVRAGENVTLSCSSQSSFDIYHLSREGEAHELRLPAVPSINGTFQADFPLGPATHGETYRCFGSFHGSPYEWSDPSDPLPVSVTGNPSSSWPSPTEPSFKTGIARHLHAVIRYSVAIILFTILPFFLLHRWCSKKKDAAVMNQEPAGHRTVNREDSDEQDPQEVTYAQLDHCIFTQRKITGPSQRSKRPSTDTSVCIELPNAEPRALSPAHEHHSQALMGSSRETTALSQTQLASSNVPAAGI
T2 sequence (P43629 22-444 limits assumed): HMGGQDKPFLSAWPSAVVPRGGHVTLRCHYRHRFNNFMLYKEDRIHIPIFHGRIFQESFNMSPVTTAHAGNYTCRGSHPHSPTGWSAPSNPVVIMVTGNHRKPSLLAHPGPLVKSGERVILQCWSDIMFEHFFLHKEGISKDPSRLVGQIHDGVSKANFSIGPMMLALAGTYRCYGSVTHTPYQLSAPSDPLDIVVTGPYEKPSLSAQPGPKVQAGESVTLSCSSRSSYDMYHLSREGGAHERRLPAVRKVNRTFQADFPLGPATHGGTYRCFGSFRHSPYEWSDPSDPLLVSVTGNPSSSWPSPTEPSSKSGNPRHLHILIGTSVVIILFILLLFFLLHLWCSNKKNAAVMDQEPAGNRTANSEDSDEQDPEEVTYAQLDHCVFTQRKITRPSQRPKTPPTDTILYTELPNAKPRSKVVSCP
T13 sequence (Q14953 22-304 limits assumed): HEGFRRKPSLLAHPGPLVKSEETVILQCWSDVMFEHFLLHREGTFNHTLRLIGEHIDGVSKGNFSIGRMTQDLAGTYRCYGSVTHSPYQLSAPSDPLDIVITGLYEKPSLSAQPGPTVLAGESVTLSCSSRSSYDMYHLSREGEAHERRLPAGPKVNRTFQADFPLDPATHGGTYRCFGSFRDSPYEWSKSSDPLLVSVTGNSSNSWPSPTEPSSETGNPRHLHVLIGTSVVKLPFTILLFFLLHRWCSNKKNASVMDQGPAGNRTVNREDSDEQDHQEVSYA

B1: KIR3DL3 mAb 574.2.8F7.1.7.4 (antibody, IgG1, V domains shown)
VH: DVKLVESGGGLVKPGGSLKLSCAASGFTFSSYCMSWVRQTPEKRLEWVATISSGGNYIYYPDSVKGRFTISRDIAKNTLYLQMSSLKSEDTAMYYCTRGGYDERYFDYWGQGTILTVSS
VL: DIQMTQSPASLSASVGETVTITCRASENIYSYLAWYQQKQGKSPQLLVYNAKTLTEGMPSRFSGSGSGTQFSLRINSLQPEDFGSYYCQHHHGTPRTFGGGTKLEIK
notes: Mouse hybridoma antibody, IgG1; only variable domains given; also called AVS-3700
In general, Kd refers to the concentration at which binding is half-saturated. A high value points to lower affinity. For orientation: EC50 means the concentration that produces a half-maximal response. A higher EC50 goes with lower potency in that assay. A word on the IC50: it is the midpoint of a concentration-inhibition curve. A higher IC50 goes with lower potency. For B1, in the test with Human KIR3DL3 [1], the “Jurkat IL-2 Luciferase, Fold Activation” value worked out at 1.2 fold. Further, the binding result with KIR3DL1 [2] is given as “no binding (tested: supernatant 1:5, 1:25, 1:250)”; in the test with KIR3DL2 [3], “no binding (tested: supernatant 1:5, 1:25, 1:250)”; in the test with KIR2DL1 [4] it was “no binding (tested: supernatant 1:5, 1:25, 1:250)”; with KIR2DL2 [5], “no binding (tested: supernatant 1:5, 1:25, 1:250)”; with KIR2DL3, “no binding (tested: supernatant 1:5, 1:25, 1:250)”; with KIR2DL4 [6], “no binding (tested: supernatant 1:5, 1:25, 1:250)”. Besides, the binding result with KIR2DL5A [7] is listed as “no binding (tested: supernatant 1:5, 1:25, 1:250)”; in the test with KIR2DL5B [8], “no binding (tested: supernatant 1:5, 1:25, 1:250)”; in the test with KIR2DS1 it was “no binding (tested: supernatant 1:5, 1:25, 1:250)”; in the test with KIR2DS2 it was “no binding (tested: supernatant 1:5, 1:25, 1:250)”; in the test with KIR2DS3, “no binding (tested: supernatant 1:5, 1:25, 1:250)”; with KIR2DS5, “no binding (tested: supernatant 1:5, 1:25, 1:250)”. In addition, the binding result with KIR3DS1 is given as “no binding (tested: supernatant 1:5, 1:25, 1:250)”. Binding with Human KIR3DL3 [9] was characterised by a dissociation constant (Kd) of 1 µg/mL. Also, the EC50 with Human KIR3DL3 [10] was found to be 1 µg/mL. The IC50 in the test with Human KIR3DL3 [11] was above 10 µg/mL; with Human KIR3DL3 [12] it was 27.5 µg/mL.

B2: Human HHLA2-mIgG2a fusion protein (Fc fusion)
chain: IFPLAFFIYVPMNEQIVIGRLDEDIILPSSFERGSEVVIHWKYQDSYKVHSYYKGSDHLESQDPRYANRTSLFYNEIQNGNASLFFRRVSLLDEGIYTCYVGTAIQVITNKVVLKVGVFLTPVMKYEKRNTNSFLICSVLSVYPRPIITWKMDNTPISENNMEETGSLDSFSINSPLNITGSNSSYECTIENSLLKQTWTGRWTMKDGLHKMQSEHVSLSCQPVNDYFSPNQDFKVTWSRMKSGTFSVLAYYLSSSQNTIINESRFSWNKELINQSDFSMNLMDLNLSDSGEYLCNISSDEYTLLTIHTVHVEPSQETASHN
notes: also called HHLA2-Ig; HHLA2-mouse IgG2a; not shown: mutated at IgG2a L235E, E318A, K320A, K322A
Regarding B2, the binding result with KIR3DL1 [13], in the test with KIR3DL2 [14], in the test with KIR2DL1 [15], with KIR2DL2 [16], with KIR2DL4 [17] and in the test with KIR2DL5A [18] was “no binding (tested: 20 ug/ml)” throughout. Besides, the binding result in the test with KIR2DL5B [19], with Human HHLA2 and with EGFR was “no binding (tested: 20 ug/ml)” in each case.

B3: KIR3DL3 mAb 574.2.1G7.9.9 (antibody, IgG2b, V domains shown)
VH: ELKLEESGGGLVQPGGSMKLSCVASGFTFSNYWMNWVRQSPEKGLEWIAEIRLKSNNYATHYAESVKGRFTISRDDSKSSVYLQMNNLRAEDTGIFYCTPFYGSSFPYWGQGTLVTVSA
VL: DIQMTQTTSSLSASLGDRVTISCRASQDISNYLNWYQQKPDGTVKLLIYYTSILQLGVPPRFSGSGSGTDYSLTISNLEQEDIATYFCQQGNTLPFTFGAGTKVELK
notes: Mouse hybridoma antibody, IgG2b; only variable domains given; also called AVS-3701
For B3, the “Jurkat IL-2 Luciferase Activation, EC50” value in the test with Human KIR3DL3 [1] is 0.37 µg/mL. Also, in the test with Human KIR3DL3 [1], the “Jurkat IL-2 Luciferase, Fold Activation” value came out at 9.9 fold. Besides, the binding result in the test with KIR3DL1 [2] is recorded as “no binding (tested: supernatant 1:5, 1:25, 1:250)”; in the test with KIR3DL2 [3], “no binding (tested: supernatant 1:5, 1:25, 1:250)”; with KIR2DL1 [4], “no binding (tested: supernatant 1:5, 1:25, 1:250)”; with KIR2DL2 [5] it was “no binding (tested: supernatant 1:5, 1:25, 1:250)”; with KIR2DL3 it was “no binding (tested: supernatant 1:5, 1:25, 1:250)”; with KIR2DL4 [6], “no binding (tested: supernatant 1:5, 1:25, 1:250)”. Moreover, the binding result with KIR2DL5A [7] was “no binding (tested: supernatant 1:5, 1:25, 1:250)”; with KIR2DL5B [8], “no binding (tested: supernatant 1:5, 1:25, 1:250)”; with KIR2DS1, “no binding (tested: supernatant 1:5, 1:25, 1:250)”; with KIR2DS2 it was “no binding (tested: supernatant 1:5, 1:25, 1:250)”; with KIR2DS3, “no binding (tested: supernatant 1:5, 1:25, 1:250)”; with KIR2DS5 it was “no binding (tested: supernatant 1:5, 1:25, 1:250)”. Also, the binding result with KIR3DS1 is given as “no binding (tested: supernatant 1:5, 1:25, 1:250)”. Further, in the test with Human KIR3DL3 [9], binding was put at a Kd of 0.13 µg/mL. For the same molecule, in the test with Human KIR3DL3 [10], a half-maximal response (EC50) required 0.13 µg/mL. Moreover, the IC50 amounted to 0.61 µg/mL with Human KIR3DL3 [11] and 0.06 µg/mL in the test with Human KIR3DL3 [20].
